Measured values reported in patent US20260070986A1 (AFFIMED, published 2026).

B1: scFv-IgAb_264 (CD123-2xCD16a2) (bispecific antibody)
chain 1: QVQLVQSGAEVKKPGASVKMSCKASGYTFTDYYMKWVKQAPGQGLEWIGDIIPSNGATFYNQKFKGKATLTVDRSISTAYMHLNRLRSDDTAVYYCTRSHLLRASWFAYWGQGTLVTVSSASTKGPSVFPLAPSSKSTSGGTAALGCLVKDYFPEPVTVSWNSGALTSGVHTFPAVLQSSGLYSLSSVVTVPSSSLGTQTYICNVNHKPSNTKVDKKVEPKSCDKTHTCPPCPAPEFEGGPSVFLFPPKPKDTLMISRTPEVTCVVVAVSHEDPEVKFNWYVDGVEVHNAKTKPREEQYNSTYRVVSVLTVLHQDWLNGKEYKCKVSNKALPAPIEKTISKAKGQPREPQVYTLPPSREEMTKNQVSLTCLVKGFYPSDIAVEWESNGQPENNYKTTPPVLDSDGSFFLYSKLTVDKSRWQQGNVFSCSVMHEALHNHYTQKSLSLSPGGGGGSGGGGSGGGGSGGGGSGGGGSGGGGSSYELTQPLSVSVALGQTARITCGGHNIGSKNVHWYQQKPGQAPVLVIYQDNKRPSGIPERFSGSNSGNTATLTISRAQAGDEADYYCQVWDNYNVLFGCGTKLTVLGGSGGSGGSGGSGGSGGSGGSQVQLVQSGAEVKKPGASVKVSCKASGYTFTSYYMHWVRQAPGQCLEWMGAIEPRYGSTSYAQKFQGRVTMTRDTSTSTVYMELSSLRSEDTAVYYCARGSAYYYDFADYWGQGTLVTVSS
chain 2: not shown
notes: also called CD123xCD16A ICE
B2: scFv-IgAb_265 (CD123-1xCD16a2) (bispecific antibody)
chain 1: QVQLQQSGAEVKKPGASVKVSCKASGYTFTDYYMKWVKQSHGKSLEWMGDIIPSNGATFYNQKFKGKATLTVDRSTSTAYMELSSLRSEDTAVYYCARSHLLRASWFAYWGQGTLVTVSSASTKGPSVFPLAPSSKSTSGGTAALGCLVKDYFPEPVTVSWNSGALTSGVHTFPAVLQSSGLYSLSSVVTVPSSSLGTQTYICNVNHKPSNTKVDKKVEPKSCDKTHTCPPCPAPEFEGGPSVFLFPPKPKDTLMISRTPEVTCVVVAVSHEDPEVKFNWYVDGVEVHNAKTKPREEQYNSTYRVVSVLTVLHQDWLNGKEYKCKVSNKALPAPIEKTISKAKGQPREPQVYTLPPSREEMTKNQVSLTCLVKGFYPSDIAVEWESNGQPENNYKTTPPVLDSDGSFFLYSKLTVDKSRWQQGNVFSCSVMHEALHNHYTQKSLSLSPGGGGGSGGGGSGGGGSGGGGSGGGGSGGGGSSYELTQPLSVSVALGQTARITCGGHNIGSKNVHWYQQKPGQAPVLVIYQDNKRPSGIPERFSGSNSGNTATLTISRAQAGDEADYYCQVWDNYNVLFGCGTKLTVLGGSGGSGGSGGSGGSGGSGGSQVQLVQSGAEVKKPGASVKVSCKASGYTFTSYYMHWVRQAPGQCLEWMGAIEPRYGSTSYAQKFQGRVTMTRDTSTSTVYMELSSLRSEDTAVYYCARGSAYYYDFADYWGQGTLVTVSS
chain 2: not shown
B3: scFv-IgAb_148 (CD123-1xCD16a2) (bispecific antibody)
chain 1: QVQLQQSGAEVKKPGASVKVSCKASGYTFTDYYMKWVKQSHGKSLEWMGDIIPSNGATFYNQKFKGKATLTVDRSTSTAYMELSSLRSEDTAVYYCARSHLLRASWFAYWGQGTLVTVSSASTKGPSVFPLAPSSKSTSGGTAALGCLVKDYFPEPVTVSWNSGALTSGVHTFPAVLQSSGLYSLSSVVTVPSSSLGTQTYICNVNHKPSNTKVDKKVEPKSCDKTHTCPPCPAPEFEGGPSVFLFPPKPKDTLMISRTPEVTCVVVAVSHEDPEVKFNWYVDGVEVHNAKTKPREEQYNSTYRVVSVLTVLHQDWLNGKEYKCKVSNKALPAPIEKTISKAKGQPREPQVYTLPPSREEMTKNQVSLTCLVKGFYPSDIAVEWESNGQPENNYKTTPPVLDSDGSFFLYSKLTVDKSRWQQGNVFSCSVMHEALHNHYTQKSLSLSPGGGGGSGGGGSGGGGSGGGGSGGGGSGGGGSSYVLTQPSSVSVAPGQTATISCGGHNIGSKNVHWYQQRPGQSPVLVIYQDNKRPSGIPERFSGSNSGNTATLTISGTQAMDEADYYCQVWDNYSVLFGGGTKLTVLGGSGGSGGSGGSGGSGGSGGSQVQLVQSGAEVKKPGESLKVSCKASGYTFTSYYMHWVRQAPGQGLEWMGAIEPMYGSTSYAQKFQGRVTMTRDTSTSTVYMELSSLRSEDTAVYYCARGSAYYYDFADYWGQGTLVTVSS
chain 2: not shown
notes: also called CD123xCD16A scFv-IgAb_148; CD16a2xCD123-1

Legend:
[1] = target: T1, CD123 on CD123+ cells (EOL-1 and other CD123+ tumour or patient cells) (human, UniProt P26951 19-378); experiment: flow cytometry on CD123+ EOL-1 cells, anti-human IgG-APC detection
T1 construct: whole, on cells; also called interleukin-3 receptor
Protocol: To analyze binding of CD123xCD16A antibody constructs to CD123+ EOL-1 cells, CD123− A-431 cells and CD123− Karpas-299 cells by flow cytometry, 1×10⁵ cells were resuspended in 100 μL FACS buffer in round-bottom 96-well microtiter plates. After washing in FACS buffer, cells were incubated in 100 μL FACS buffer without antibodies or with titrated antibodies starting at a concentration of 100 μg/mL followed by eight 10-fold serial dilutions for 45 min on ice in the dark. After washing twice, cells were incubated with APC-conjugated goat anti-human IgG (H+L)-APC (1/200 dilution) for 30 min on ice in the dark. After washing, binding was measured by flow cytometry and mean fluorescence intensities (MFI) of cell samples were calculated and corrected for background staining using control cells stained with secondary antibodies only.

[2] = target: T2, recombinant human CD16A 158V, biotinylated mFc.silenced/Avi-tagged (human, UniProt P08637 17-208, biotinylated (Avi-tag)); experiment: SPR (Biacore), 37 °C, multi-cycle kinetics, biotin-captured antigen as ligand, antibody construct as analyte, 1:1 binding model
T2 construct: not shown: silenced mouse Fc (mFc.silenced) and Avi-tag
Protocol: (§1) After each cycle, chip surfaces were regenerated with 6M guanidine-HCl, 0.25M NaOH and reloaded with Biotin Capture reagent. Interaction kinetics were determined by fitting data from multi-cycle kinetics experiments to a simple 1:1 interaction model using the local data analysis option (Rmax and RI) available within Biacore T200 Evaluation Software (v3.1). Referencing was done against a flow cell without captured ligand (Fc2-Fc1, Fc4-Fc3).
(§2) Affinity and kinetic parameters were evaluated for interaction with human CD16A and cynomolgus CD16 using a 1:1 Binding model.

[3] = target: T3, recombinant human CD16A 158F, biotinylated mFc.silenced/Avi-tagged (human, UniProt P08637 17-208, biotinylated (Avi-tag)); experiment: as above
T3 construct: not shown: silenced mouse Fc (mFc.silenced) and Avi-tag
Protocol: as §1, §2

[4] = target: T4, recombinant cynomolgus CD16, biotinylated mFc.silenced/Avi-tagged (cynomolgus, UniProt Q8SPW2 17-208, biotinylated (Avi-tag)); experiment: as above
T4 construct: not shown: silenced mouse Fc (mFc.silenced) and Avi-tag
Protocol: as §1, §2

[5] = target: T5, human CD16A (158F) on transfected CHO cells (cAg_34) (human, UniProt P08637 17-254); experiment: flow cytometry on huCD16A-transfected CHO cells (cAg_34), one-site fit of MFI, experiment 1
T5 construct: Exact cell-anchored construct not described; also called huCD16A
Protocol: (§3) After washing in FACS buffer, cells were incubated in 50 μL FACS buffer without antibodies or with titrated antibodies starting at a concentration of 100 μg/mL followed by ten 5-fold serial dilutions for 30 min on ice in the dark. After washing twice, cells were incubated with APC-conjugated goat anti-human IgG (H+L)-APC (Dianova, cat. 109-136-088) for 30 min on ice in the dark. […] After washing, binding was measured by flow cytometry and mean fluorescence intensities (MFI) of cell samples were calculated and corrected for background staining using control cells stained with secondary antibodies only.
(§4) Equilibrium dissociation constants (KD) of antibody binding were calculated by plotting MFI values and fitting a non-linear regression model for one-site binding to hyperbolic dose-response curves using GraphPad Prism.

[6] = target: T5, human CD16A (158F) on transfected CHO …; experiment: flow cytometry on huCD16A-transfected CHO cells (cAg_34), one-site fit of MFI, experiment 2
Protocol: as §3, §4

[7] = target: T5, human CD16A (158F) on transfected CHO …; experiment: flow cytometry on huCD16A-transfected CHO cells (cAg_34), one-site fit of MFI, mean of 3 experiments
Protocol: as §3, §4

[8] = target: T5, human CD16A (158F) on transfected CHO …; experiment: flow cytometry on huCD16A-transfected CHO cells (cAg_34), one-site fit of MFI, experiment 3
Protocol: as §3, §4

[9] = target: T5, human CD16A (158F) on transfected CHO …; experiment: flow cytometry on huCD16A-transfected CHO cells, anti-human IgG-APC detection
Protocol: To analyze binding of different antibody constructs to CHO cells transfected with human CD16A (cAg_34), relative to CD16 expression by flow cytometry, 1-2×10⁵ were resuspended in 100 μL FACS buffer (PBS (Invitrogen, cat.: 14190-169) containing 2% heat-inactivated FCS (Invitrogen, cat.: 10270-106), and 0.1% sodium azide (Roth, Karlsruhe, Germany, cat.: A1430.0100)) in round-bottom 96-well microtiter plates. After washing in FACS buffer, cells were incubated in 50 μL FACS buffer without antibodies or with titrated antibodies starting at a concentration of 100 μg/mL followed by ten 5-fold serial dilutions for 30 min on ice in the dark. After washing twice, cells were incubated with APC-conjugated goat anti-human IgG (H+L)-APC (Dianova, cat. 109-136-088) for 30 min on ice in the dark. […] After washing, binding was measured by flow cytometry and mean fluorescence intensities (MFI) of cell samples were calculated and corrected for background staining using control cells stained with secondary antibodies only.
as §4

T2 sequence (P08637 17-208 F176V limits assumed): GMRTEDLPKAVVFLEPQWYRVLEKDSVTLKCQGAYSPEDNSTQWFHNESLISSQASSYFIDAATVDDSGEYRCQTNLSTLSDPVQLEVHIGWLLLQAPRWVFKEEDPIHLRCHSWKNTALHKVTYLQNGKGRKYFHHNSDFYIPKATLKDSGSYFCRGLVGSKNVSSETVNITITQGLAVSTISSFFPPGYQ
T3 sequence (P08637 17-208): as the sequence (P08637 17-208 F176V limits assumed) above, with V160F counted along it
T4 sequence (Q8SPW2 17-208): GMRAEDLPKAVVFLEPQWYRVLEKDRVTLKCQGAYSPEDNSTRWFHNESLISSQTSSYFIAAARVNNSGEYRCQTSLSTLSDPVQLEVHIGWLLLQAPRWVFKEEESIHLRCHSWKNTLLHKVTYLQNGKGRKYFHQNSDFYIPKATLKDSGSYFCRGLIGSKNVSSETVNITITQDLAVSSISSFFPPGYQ
T5 sequence (P08637 17-254 limits assumed): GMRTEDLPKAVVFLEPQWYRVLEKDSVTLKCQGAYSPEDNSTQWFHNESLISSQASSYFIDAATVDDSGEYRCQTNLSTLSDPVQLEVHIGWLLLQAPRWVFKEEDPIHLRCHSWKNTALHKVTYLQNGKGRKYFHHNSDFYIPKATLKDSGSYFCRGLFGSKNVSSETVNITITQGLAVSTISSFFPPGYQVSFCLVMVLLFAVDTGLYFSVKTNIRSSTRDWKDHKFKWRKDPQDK
T1 sequence (P26951 19-378): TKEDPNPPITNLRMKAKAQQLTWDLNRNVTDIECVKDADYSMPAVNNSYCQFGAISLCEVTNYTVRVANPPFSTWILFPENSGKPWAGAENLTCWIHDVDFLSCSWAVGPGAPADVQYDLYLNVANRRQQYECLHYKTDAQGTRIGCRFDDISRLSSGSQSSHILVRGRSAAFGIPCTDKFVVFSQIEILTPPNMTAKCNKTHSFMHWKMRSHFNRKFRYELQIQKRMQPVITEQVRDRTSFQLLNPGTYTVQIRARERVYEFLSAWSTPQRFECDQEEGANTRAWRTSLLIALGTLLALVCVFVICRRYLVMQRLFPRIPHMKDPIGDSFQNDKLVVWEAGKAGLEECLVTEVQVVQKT

Binder | EC50 (read off the curve) [1] [nM] | Kd [2] [nM] | koff [2] [s⁻¹] | kon [2] [M⁻¹ s⁻¹] | Kd [3] [nM] | koff [3] [s⁻¹] | kon [3] [M⁻¹ s⁻¹] | Kd [4] [nM] | koff [4] [s⁻¹] | kon [4] [M⁻¹ s⁻¹] | Kd [5] [nM] | Kd [6] [nM] | Kd [7] [nM] | Kd [8] [nM] | EC50 (read off the curve) [9] [nM]
B1 | ~0.4 | 0.43 | 0.0027 | 6.3e+06 | 0.567 | 0.0036 | 6.4e+06 | 2.4 | 0.013 | 5.2e+06 |  |  |  |  | 
B2 | ~0.4 |  |  |  |  |  |  |  |  |  |  |  |  |  | 
B3 |  | 0.75 | 0.00023 | 310000 | 1.25 | 0.00037 | 300000 | 2.48 | 0.00047 | 190000 | 56.2 | 18.7 | 37.6 | 37.9 | ~20
